{"source": "paper PMC11615899", "about": "(The Journal of Biological Chemistry, 2024)", "proteins": {"B1": {"name": "F-BAR_(REMIND): the [70–347] region of TgREMIND with an N-terminal His-tag and five cysteines replaced (domain or fragment, Toxoplasma gondii, UniProt S8GLL7 70-347, looked up)", "chain": "APANATAENAFSFKEDLTSDWSLAVSRVDSGRTLLERLRAALLLRANAAVEQASKMESLVQTFVATNLESKTVMSAVNALRLEAVHQADHAREFAEAIRRDVVEGTLTNTIHNHYLVLQQIKADGSEAQKELTLATVDHQKAMHRYLRASKEAAAAAVKAQAAEGEAPNVRTELALSAIRRAVEAKAAEDEHRESVARLNAAAQANERKMAIILQSLQDMDEKRMLSFRDALRKAMVYQAAYLRNVQYDLEQTIKTVDAVDPMADLQEFLGKYRLPKK"}}, "molecular_target": "the molecule itself", "assay": "SEC"}
{"protein": "B1", "values": [{"measurement": "stoichiometry N", "result": 6}]}
